This series concerns the molecule itself. The experiment in a line: FRET or BRET; in vitro intermolecular FRET; equimolar mixture of the CFP-X-CFP and YFP-X-YFP fusions, total protein 10 nM, kinetic buffer (50 mM Tris-HCl pH 7.0, 125 mM NaCl, 0.01% Tween-20, 1 mM DTT) with 22.5% PEG 3350, 1 h at 30 °C; excitation 400 nm, ratio R of emission at 530 nm/485 nm.

B1: TC45^E/A (TC45 with 378KRKRPR383 mutated into 378EAAAPE383), fused at both termini to CFP (CFP-TC45^E/A-CFP) or to YFP (YFP-TC45^E/A-YFP), bacterially expressed (enzyme, UniProt P17706-2 1-387, looked up)
chain: MPTTIEREFEELDTQRRWQPLYLEIRNESHDYPHRVAKFPENRNRNRYRDVSPYDHSRVKLQNAENDYINASLVDIEEAQRSYILTQGPLPNTCCHFWLMVWQQKTKAVVMLNRIVEKESVKCAQYWPTDDQEMLFKETGFSVKLLSEDVKSYYTVHLLQLENINSGETRTISHFHYTTWPDFGVPESPASFLNFLFKVRESGSLNPDHGPAVIHCSAGIGRSGTFSLVDTCLVLMEKGDDINIKQVLLNMRKYRMGLIQTPDQLRFSYMAIIEGAKCIKGDSSIQKRWKELSKEDLSPAFDHSPNKIMTEKYNGNRIGLEEEKLTGDRCTGLSSKMQDTMEENSESALRKRIREDRKATTAQKVQQMKQRLNENEREAAAPELTDT
notes: The His6 tag and its thrombin cleavage are described in general for the pET28 constructs and the purification; also called C-EA-C; Y-EA-Y; not shown: His6, N-terminal, cleaved; CFP (one copy) or YFP (the other copy), N-terminal, kept; CFP (one copy) or YFP (the other copy), C-terminal, kept
Consider B1, for which the binding result is “binds”.

B2: T-cell protein tyrosine phosphatase, 45 kDa form (TC45), wild type, fused at both termini to CFP (CFP-TC45-CFP) or to YFP (YFP-TC45-YFP), bacterially expressed (enzyme, UniProt P17706-2 1-387, looked up)
chain: MPTTIEREFEELDTQRRWQPLYLEIRNESHDYPHRVAKFPENRNRNRYRDVSPYDHSRVKLQNAENDYINASLVDIEEAQRSYILTQGPLPNTCCHFWLMVWQQKTKAVVMLNRIVEKESVKCAQYWPTDDQEMLFKETGFSVKLLSEDVKSYYTVHLLQLENINSGETRTISHFHYTTWPDFGVPESPASFLNFLFKVRESGSLNPDHGPAVIHCSAGIGRSGTFSLVDTCLVLMEKGDDINIKQVLLNMRKYRMGLIQTPDQLRFSYMAIIEGAKCIKGDSSIQKRWKELSKEDLSPAFDHSPNKIMTEKYNGNRIGLEEEKLTGDRCTGLSSKMQDTMEENSESALRKRIREDRKATTAQKVQQMKQRLNENERKRKRPRLTDT
notes: T-cell protein tyrosine phosphatase (TC-PTP, encoded by PTPN2), 45 kDa form TC45, full-length ORF; the printed residues 377RKRKRPR383 near the C terminus fit the 387-residue TC45 isoform; Self-association was tested with an equimolar mixture of two differently labelled copies: CFP-TC45-CFP and YFP-TC45-YFP; The His6 tag and its thrombin cleavage are described in general for the pET28 constructs …
On to B2, for which the binding result was “binds”.

(Values after paper PMC9720572, “Macromolecular crowding amplifies allosteric regulation of T-cell protein tyrosine phosphatase” (The Journal of Biological Chemistry, 2022).)
